Experimental data from CN114907476A (SHANGHAI PHARMACEUTICALS HOLDING CO LTD, dated 2022).
Where a chain is given by its changes, count along the chain named.

T1: 表达于CHOK1细胞表面的人TIGIT (CHOK1/人TIGIT细胞, 吉满生物 GM-C01116) (human, UniProt Q495A1 22-244)
T1 construct: whole, on cells; Purchased cell line; also called CHOK1/hTIGIT
T1 sequence (looked up): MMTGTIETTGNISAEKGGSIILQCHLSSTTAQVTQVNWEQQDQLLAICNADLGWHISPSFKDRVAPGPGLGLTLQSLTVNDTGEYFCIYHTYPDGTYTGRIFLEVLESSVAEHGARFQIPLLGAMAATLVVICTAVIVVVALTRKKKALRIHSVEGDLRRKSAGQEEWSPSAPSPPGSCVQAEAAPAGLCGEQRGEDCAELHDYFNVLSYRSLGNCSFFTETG

T2: SPH-B011-A-Antigen-his蛋白 (人TIGIT) (human, UniProt Q495A1 22-141, limits assumed)
T2 construct: Analyte of the Biacore assay; also called 抗原(人TIGIT); not shown: his tag
T2 sequence (looked up): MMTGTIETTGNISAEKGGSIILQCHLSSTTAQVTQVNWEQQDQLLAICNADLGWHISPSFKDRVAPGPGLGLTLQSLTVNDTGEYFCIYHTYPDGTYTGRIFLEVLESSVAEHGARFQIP

B1: 阳性对照抗体P1 (antibody, human IgG1, kappa, V domains shown)
VH: QVQLQESGPGLVKPSETLSLTCTVSGGSVSSGIYYWSWIRQPPGKGLEWIGYIYYSGSTNYNPSLKSRVTISVDTSKNQFSLKLSSVTAADTAVYYCARDYYVSGNYYNVDYYFFGVDVWGQGTTVTVSS
VL: EIVLTQSPATLSLSPGERATLSCRASQSVSSYLAWYQQKPGQAPRLLIYDASNRATGIPARFSGSGSGTDFTLTISSLEPEDFAVYYCQQRSNWPPLFTFGPGTKVDIKR
notes: Positive control anti-TIGIT antibody
B2: 阳性对照抗体P4 (antibody, human IgG1, kappa, V domains shown)
VH: EVQLQQSGPGLVKPSQTLSLTCAISGDSVSSNSAAWNWIRQSPSRGLEWLGKTYYRFKWYSDYAVSVKGRITINPDTSKNQFSLQLNSVTPEDTAVFYCTRESTTYDLLAGPFDYWGQGTLVTVSS
VL: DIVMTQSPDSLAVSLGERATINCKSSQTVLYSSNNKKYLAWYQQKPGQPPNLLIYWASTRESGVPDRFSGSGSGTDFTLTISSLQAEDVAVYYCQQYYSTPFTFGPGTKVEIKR
notes: as for B1
B3: 嵌合抗TIGIT抗体A0 (antibody, human IgG1, kappa, V domains shown)
VH: ELQLQQSGPELVKPGASVKISCKASGYSFTDYNMNWVKQSNGKSLEWIGVINPNHGTISYNQKFKGKATLTVDQSSSTAYMQLNSLTSEDSAVYYCANNWDVWYFDVWGTGTTVTVSS
VL: DIQMTQSPASLSASVGETVTITCRPSENIYSYLAWYRQKQGNSPQLLVYNAKALAEGVPSRFSGSGSGTQFSLKINSLQPEDFGSYYCQHHFGAPWTFGGGTKLEIKR
notes: also called B011-A-142E4C5
B4: 人源化抗TIGIT抗体A2 (antibody, human IgG1, kappa, V domains shown)
VH: QLQLVQSGAEVKKPGASVKVSCKASGYSFTDYNMNWVRQAPGQSLEWIGVINPNHGTISYNQKFKGRVTMTRDQSTSTAYMELNSLRSEDTAVYYCANNWDVWYFDVWGQGTLVTVSS
VL: DIQMTQSPSSLSASVGDRVTITCRPSENIYSYLAWYQQKPGKAPKLLVYNAKALAEGVPSRFSGSGSGTDFTLTISSLQPEDFATYYCQHHFGAPWTFGQGTKVEIKR
notes: Humanized
B5: 人源化抗TIGIT抗体A4 (antibody, human IgG1, kappa, V domains shown)
VH: B4 VH
VL: B4 VL with K42N, A43S, D70Q, Q100G
notes: Humanized
B6: 人源化抗TIGIT抗体A3 (antibody, human IgG1, kappa, V domains shown)
VH: B4 VH
VL: B4 VL with K42N, D70Q
notes: Humanized
B7: 人源化抗TIGIT抗体A1 (antibody, human IgG1, kappa, V domains shown)
VH: B4 VH
VL: B4 VL with V48I
notes: Humanized

target: Jurkat-hTIGIT-NFAT-CD226细胞上过表达的人TIGIT (human); test: cell-based or functional assay
Sequence (Q495A1 whole entry): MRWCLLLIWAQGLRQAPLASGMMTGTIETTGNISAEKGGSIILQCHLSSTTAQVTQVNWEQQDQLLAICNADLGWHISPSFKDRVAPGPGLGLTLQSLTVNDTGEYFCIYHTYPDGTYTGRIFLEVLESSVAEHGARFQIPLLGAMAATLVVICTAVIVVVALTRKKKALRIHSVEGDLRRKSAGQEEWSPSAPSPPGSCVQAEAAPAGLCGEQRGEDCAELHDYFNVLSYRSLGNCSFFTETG

EC50(μg/ml)of RLU [µg/mL]	Max RLU [RLU]	Binder
0.305	10500	B1
0.357	9610	B2
1.32	9270	B3
1.01	9210	B4
0.847	8810	B5
0.782	9370	B6
1.18	8950	B7

target: T1, 表达于CHOK1细胞表面的人TIGIT (CHOK1/人TIGIT细胞, …); test: flow cytometry on CHOK1/hTIGIT cells, EC50 of MFI

EC50 [µg/mL]	Binder
0.264	B1
0.214	B2
~0.139	B3
0.312	B4
0.496	B5
0.329	B6
0.36	B7

target: T1, 表达于CHOK1细胞表面的人TIGIT (CHOK1/人TIGIT细胞, …); test: flow cytometry competition, EC50 of % inhibition of Biotinylated-CD155 (0.6μg/ml) binding to CHOK1/human TIGIT cells

EC50 [µg/mL]	Binder
0.189	B1
0.103	B2
0.138	B3

target: T1, 表达于CHOK1细胞表面的人TIGIT (CHOK1/人TIGIT细胞, …); test: flow cytometry on CHOK1/hTIGIT cells

最大MFI [MFI]	Binder
13500	B1
10300	B2
9890	B3
10600	B4
10100	B5
10200	B6
10800	B7

target: Jurkat-hTIGIT-NFAT-CD226细胞上过表达的人TIGIT (human); test: cell-based or functional assay; remark: another data set of the same source

EC50(μg/ml)of RLU [µg/mL]	最大RLU [RLU]	Binder
0.633	9080	B1
0.534	8840	B2
0.922	8260	B3

target: T1, 表达于CHOK1细胞表面的人TIGIT (CHOK1/人TIGIT细胞, …); test: flow cytometry competition, inhibition of Biotinylated-CD155 (0.6μg/ml) binding to CHOK1/hTIGIT cells

最大抑制 [%]	Binder
100	B1
100	B2
99.2	B3
99.6	B4
99.5	B5
99.6	B6
99.3	B7

target: T1, 表达于CHOK1细胞表面的人TIGIT (CHOK1/人TIGIT细胞, …); test: flow cytometry competition, EC50 of % inhibition of Biotinylated-CD155 (0.6μg/ml) binding to CHOK1/hTIGIT cells

EC50 [µg/mL]	Binder
0.306	B1
0.309	B2
0.384	B3
0.406	B4
0.27	B5
0.427	B6
0.43	B7

target: T2, SPH-B011-A-Antigen-his蛋白 (人TIGIT); test: Biacore, antibody captured on anti-Fc CM5 chip, human TIGIT-his 100nM as analyte, 25℃

Kd [nM]	koff [s⁻¹]	kon [M⁻¹ s⁻¹]	Binder
4.3	0.00241	560000	B4
4.85	0.00257	529000	B5
4.66	0.00225	483000	B6
4.62	0.00251	544000	B7

target: T1, 表达于CHOK1细胞表面的人TIGIT (CHOK1/人TIGIT细胞, …); test: flow cytometry competition, inhibition of Biotinylated-CD155 (0.6μg/ml) binding to CHOK1/human TIGIT cells

最大抑制 [%]	Binder
99.7	B1
100	B2
99.8	B3
